The labels stand for the following.
T1: HCoV-HKU1 spike antigens (bead panel) (HCoV-HKU1, UniProt Q5MQD0 13-1300)
T1 sequence: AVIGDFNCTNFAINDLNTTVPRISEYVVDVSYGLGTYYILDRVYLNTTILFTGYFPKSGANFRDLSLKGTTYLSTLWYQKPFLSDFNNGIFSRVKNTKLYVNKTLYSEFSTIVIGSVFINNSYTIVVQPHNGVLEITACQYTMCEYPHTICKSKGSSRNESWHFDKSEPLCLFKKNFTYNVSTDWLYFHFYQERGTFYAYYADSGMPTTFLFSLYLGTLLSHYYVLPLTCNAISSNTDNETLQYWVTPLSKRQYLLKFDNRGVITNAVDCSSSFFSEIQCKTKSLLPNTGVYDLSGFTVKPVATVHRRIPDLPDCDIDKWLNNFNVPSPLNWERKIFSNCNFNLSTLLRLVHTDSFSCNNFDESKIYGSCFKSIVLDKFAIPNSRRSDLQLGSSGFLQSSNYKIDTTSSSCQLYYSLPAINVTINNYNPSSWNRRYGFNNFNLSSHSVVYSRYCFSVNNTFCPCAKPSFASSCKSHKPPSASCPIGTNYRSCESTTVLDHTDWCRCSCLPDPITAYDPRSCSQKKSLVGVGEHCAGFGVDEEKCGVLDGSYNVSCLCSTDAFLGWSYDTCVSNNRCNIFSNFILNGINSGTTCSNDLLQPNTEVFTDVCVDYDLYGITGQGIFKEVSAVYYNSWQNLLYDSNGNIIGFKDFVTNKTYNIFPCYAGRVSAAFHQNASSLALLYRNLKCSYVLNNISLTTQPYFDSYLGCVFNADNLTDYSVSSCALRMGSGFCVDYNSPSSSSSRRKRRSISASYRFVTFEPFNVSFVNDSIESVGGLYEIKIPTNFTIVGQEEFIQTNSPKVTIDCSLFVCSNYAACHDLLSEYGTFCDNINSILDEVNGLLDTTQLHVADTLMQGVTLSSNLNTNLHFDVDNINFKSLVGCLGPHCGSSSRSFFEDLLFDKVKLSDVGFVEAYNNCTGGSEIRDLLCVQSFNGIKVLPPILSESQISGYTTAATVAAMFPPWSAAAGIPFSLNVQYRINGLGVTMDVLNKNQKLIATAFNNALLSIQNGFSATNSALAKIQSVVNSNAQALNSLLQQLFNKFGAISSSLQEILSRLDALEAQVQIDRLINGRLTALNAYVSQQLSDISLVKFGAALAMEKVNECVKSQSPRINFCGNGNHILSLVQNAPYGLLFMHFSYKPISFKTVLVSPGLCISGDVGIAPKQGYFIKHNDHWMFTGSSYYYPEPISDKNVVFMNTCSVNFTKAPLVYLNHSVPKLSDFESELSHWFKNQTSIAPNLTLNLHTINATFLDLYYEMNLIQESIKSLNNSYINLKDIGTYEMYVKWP

T2: HCoV-NL63 spike antigens (bead panel) (HCoV-NL63, UniProt Q6Q1S2 19-1296)
T2 sequence: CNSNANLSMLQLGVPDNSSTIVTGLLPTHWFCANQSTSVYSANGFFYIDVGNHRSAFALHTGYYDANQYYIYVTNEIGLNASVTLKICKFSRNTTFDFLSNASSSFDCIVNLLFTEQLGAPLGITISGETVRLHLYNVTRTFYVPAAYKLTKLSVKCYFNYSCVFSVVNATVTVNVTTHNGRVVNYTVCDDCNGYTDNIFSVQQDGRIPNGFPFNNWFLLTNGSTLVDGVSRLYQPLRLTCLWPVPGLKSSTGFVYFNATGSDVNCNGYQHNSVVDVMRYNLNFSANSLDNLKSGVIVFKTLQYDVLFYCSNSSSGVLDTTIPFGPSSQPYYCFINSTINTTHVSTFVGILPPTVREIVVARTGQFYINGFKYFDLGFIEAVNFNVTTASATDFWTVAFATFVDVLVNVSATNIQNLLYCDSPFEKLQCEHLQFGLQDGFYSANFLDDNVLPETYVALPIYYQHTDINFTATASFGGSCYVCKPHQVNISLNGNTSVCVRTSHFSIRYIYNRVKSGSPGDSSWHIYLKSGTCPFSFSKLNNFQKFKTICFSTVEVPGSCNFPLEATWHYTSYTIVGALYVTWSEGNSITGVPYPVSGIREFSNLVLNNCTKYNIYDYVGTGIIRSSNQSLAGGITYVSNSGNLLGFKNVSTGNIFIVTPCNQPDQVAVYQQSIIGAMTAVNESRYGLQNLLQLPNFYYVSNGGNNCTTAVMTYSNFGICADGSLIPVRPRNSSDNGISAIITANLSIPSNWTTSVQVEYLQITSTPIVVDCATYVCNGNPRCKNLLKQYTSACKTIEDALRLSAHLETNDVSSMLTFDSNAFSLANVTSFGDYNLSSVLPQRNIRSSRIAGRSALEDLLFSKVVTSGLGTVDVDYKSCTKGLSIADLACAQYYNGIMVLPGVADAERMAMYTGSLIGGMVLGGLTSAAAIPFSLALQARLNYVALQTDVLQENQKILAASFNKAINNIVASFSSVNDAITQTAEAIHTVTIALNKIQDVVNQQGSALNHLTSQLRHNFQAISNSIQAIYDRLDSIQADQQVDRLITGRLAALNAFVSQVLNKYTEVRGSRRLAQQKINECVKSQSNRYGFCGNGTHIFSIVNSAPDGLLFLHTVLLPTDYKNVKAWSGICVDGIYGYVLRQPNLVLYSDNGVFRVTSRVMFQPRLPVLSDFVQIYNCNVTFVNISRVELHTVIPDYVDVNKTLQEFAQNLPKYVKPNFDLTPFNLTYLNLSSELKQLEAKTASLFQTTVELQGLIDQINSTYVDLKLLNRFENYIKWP

B1: COV_3088 (antibody, V domains shown)
VH: EVQLVESGGGLVQPGGSLRLSCAASGFTFSSYDMHWVRQATGKGLEWVSAIGTAGDTYYPGSVKGRFTISRENAKNSLYLQMNSLRAGDTAVYYCARGSGWPPFFDYWGQGTLVTVSS
VL: SYELTQPPSVSVAPGKTARITCGGNNIGSKSVHWYQQKPGQAPVLVIYYDSDRPSGIPERFSGSNSGNTATLTISRVEAGDEADYYCQVWDSSSDHHWVFGGGTKLTVL
notes: human IgG1
B2: COV_2193 (antibody, V domains shown)
VH: QVQLVQSGAEVKKPGASVKVSCKVSGYTLTDLSMHWVRQTPGKGLEWMGGFDAEDGETIYAQNFQGRVTMTEDTSIDVAYMELSSLRSEDTAVYYCATGSVGPDYWGQGTLVTVSS
VL: SSELTQDPAVSVALGQTVRITCQGDSLRSYYASWFQQKPGQAPVLVIYLKNDRPSGIPDRFSGSSSGNTASLTITGAQAEDEADYYCNSRDSSGNHQVFGGGTKLTVL
notes: human IgG1
B3: COV_2103 (antibody, V domains shown)
VH: EVQLVESGGGVVQPGRSLRLSCGASGFTFSSYGIHWVRQAPGKGLDWVAVIWHDGSQKYYGDSVKGRFTISRDNSKNTLYLQMNRLRAEDTAVYYCARDSGDDYDSSGYPIGNAFDLWGQGTMVTVSS
VL: DIQMTQSPSTLSASVGDRVTITCRASQFINSWLAWYQQKPGKAPKLLIYKASSLETGVPSRFSGSGSGTEFTLTISSLQPDDFATYYCQQYNTYSFTFGPGTKVDIK
notes: human IgG1
B4: COV_2057 (antibody, V domains shown)
VH: EVQLVQSGAEVKKPGESLKISCKGSGYSFISYWIAWVRQMPGKGLEWMGIIYPGDSDTTYSPSFQGQVTISADKSISTAYLQWSSLKASDTAIYYCARLLYYSDSSPLDSWGQGTLVTVSS
VL: DIQMTQSPSSLSASVGDRVTITCRASQSISTYLNWYQQKPGKAPNLLIYAASSLQSGVPSRFSGSGSGTDFTLTISSLQPEDFATYYCQQSHSTPRTFGPGTKVDIK
notes: human IgG1
B5: COV_1025 (antibody, V domains shown)
VH: QVQLVESGGGVVQPGRSLRLSCAASGFTFNTYAMHWVRQAPGKGLEWVAIISYDGGNKYYADSMKGRFTISRDNSKNTLYLQMNSLRAEDTAVYYCARARTGNYYYGMDVWGQGTTVTVSS
VL: not shown
notes: human IgG1
B6: COV_1050 (antibody, V domains shown)
VH: QVQLVESGGGVVQPGRSLRLSCAASRFTFSSYAMHWVRQAPGKGLEWVAVISFDGSNKYYADSVKGRFTIFRDNSKNTLSLQMNSLRTEDTAMYYCASPAGYYESLWGQGTLVTVSS
VL: SYELTQPPSVSVSPGQTARVTCSGDALSKQYGFWYQQKPGQAPTLVIYKDTERPSGIPERFSGSGSGTTVTLTISGVQAEDEADYYCQSTDNSGRWVFGGGTKLTVLG
notes: human IgG1
B7: COV_2054 (antibody, V domains shown)
VH: EVQLVESGGGVLQPGRSLRLSCAASGFTFNNYALHWVRQAPGKGLEWVAVISYDGSSKYYADSVRGRLTISRDNSRNTLYLQMNSLRPEDTAIYYCARDGDGLWLGESFYFDDWGQGTLVTVSS
VL: DIQMTQSPSTLSASVGDRVIITCRASQSISSWLAWYQQKPGKAPKLLIYEASTLQSGVPSRFSGSGSGTEFTLTISSLQPDDSATYYCQQYNSYPVHFSQGTKLEIK
notes: human IgG1
B8: COV_2137 (antibody, V domains shown)
VH: EVQLVESGGGLVKPGGSLRLSCAASGFTFSSYTMNWVRQAPGKGLEWVSSISSGSSFIYYADSLRGRFTISRDNAKNSLYLQMNSLRAEDTAVYYCARAPEPQSVIYAYWYFDLWGRGTLVTVSS
VL: QSALTQPASVSGSPGQSITFSCTGTSSDVGSYNLVSWYQQYPGKAPKLMIYEVNKRPSGVSNRFSGSKSGNTASLTISGLQAEDEADYYCCSYAGSSTFYVFGTGTKVTVLG
notes: human IgG1
B9: COV_2100 (antibody, V domains shown)
VH: EVQLVESGGGLVQPGGSLRLSCAASGFTFSSYDMYWVRQATGKGLEWVSAIGTAGDTYYPGSVKGRFTISRENAKNSLYLRMNSLRAGDTAVYFCARADKNTAMFFDYWGQGTLVTVSS
VL: DIQMTQSPSSLSASVGDRVTITCRASQNINNFLHWYQQKPGNAPKLLIYAASTLQSGVPSRFSGSGSGTDFTLTISSLQPEDFATYYCQQSYSTPGGTFGGGTKVEIK
notes: human IgG1
B10: COV_3053 (antibody, V domains shown)
VH: EVQLVESGGGLVQPGRSLRLSCTASGFTLGDYAMTWVRQAPGKGLEWLGIIRNKRYGETKQYAASVKGRFTFSRDDSKGIGYLQRLSLKIEDTGVYYCTREHIVRDDAFDVWGQGTTVTVSS
VL: DIVMTQSPDSLAVSLGERATINCKSSQSVLYSSNNKNYIAWYQQRPGQPPKLLIYWTSTRASGVPDRFSGSGSGTDFALTISSLQAEDVAVYYCQQYYTIPRTFGQGTKVEIK
notes: human IgG1
B11: COV_2196 (antibody, V domains shown)
VH: QVQLVQSGAEVKKPGASVKVSCKVSGYTLIELSMHWVRQAPGKGLEWMGGFDPEDAKTIYAQKFQGRVTMTEDTSTDTAYMELSSLTFEDTAVYYCATTPAFMAAAGDFDYWGQGTLVTVSS
VL: QPVLTQPSSVSVSPGQTATITCSGDVLAKKYARWFQQKPGQAPMLVIYKDTERPSGIPERFSGSSSGTTVTLTINGAQVEDEADYYCYSAAAWVFGGGTKLTVL
notes: human IgG1
B12: COV_2134 (antibody, V domains shown)
VH: EVQLVESGGGVVQPGRSLRLSCAASGFIFSSYGMYWVRQAPGKGLEWVAVIWYDGSNKYYADSVKGRFTISRDNSKNTLYLQMNSLRAEDTAVYYCARDLSSSSGWDDYYYYYGMDVWGQGTTVTVSS
VL: not shown
notes: human IgG1

The target in the first experiment is T1, HCoV-HKU1 spike antigens (bead panel). Put plainly: multiplex bead assay.
Consider B1, for which the binding result is reported as “no binding”.
With B2, the binding result is reported as “no binding”.
For B3, the binding result is “no binding”.
The same measure, in the same setting: the result for B4 reads “no binding”; that for B5, “no binding”.
As for B6, the binding result is reported as “no binding”.
Consider B7, for which the binding result is given as “no binding”.
Consider B8, for which the binding result is “no binding”.
B9: the binding result was “no binding”.
As for B10, the binding result was “no binding”.
The same measure, in the same setting: for B11 the value was “no binding”; for B12, “no binding”.

Another experiment concerns the target T2, HCoV-NL63 spike antigens (bead panel). Put plainly: multiplex bead assay.
Turning to B1, the binding result is on record as “no binding”.
For B2, the binding result is “no binding”.
For the molecule B3, the binding result is on record as “no binding”.
The same measure, in the same setting: the result for B4 reads “no binding”.
For the molecule B5, the binding result is on record as “no binding”.
On to B6, for which the binding result is “no binding”.
Same read-out and setting: for B7 the value was “no binding”; for B8, “no binding”; for B9, “no binding”.
As for B10, the binding result is recorded as “no binding”.
On to B11, for which the binding result is on record as “no binding”.
Same read-out and setting: the result for B12 reads “no binding”.

For the origin of these results see US20240101645A1 (HENRY M JACKSON FOUNDATION FOR THE ADVANCEMENT OF MILITARY …, published 2024).
